Measured values reported in US20140086935A1 (Bayer, published 2014).

B1: MS-BW-44-6-1 (Fab, V domains shown)
VH: QVQLVESGGGLVQPGGSLRLSCAASGFTFNSYAMSWVRQAPGKGLEWVSVISGNGSNTYYADSVKGRFTISRDNSKNTLYLQMNSLRAEDTAVYYCARFLDIWGQGTLVTVSS
VL: DIALTQPASVSGSPGQSITISCTGTSSDVGGYNYVSWYQQHPGKAPKLMIYDVSNRPSGVSNRFSGSKSGNTASLTISGLQAEDEADYYCQSYDFIRFMVFGGGTKLTVLG
notes: Fab from LCDR3 optimization of MS-BW-44-6
B2: MS-BW-14 IgG1 (antibody, V domains shown)
VH: QVQLVQSGAEVKKPGSSVKVSCKASGGTFSSYAISWVRQAPGQGLEWMGGIIPIFGTANYAQKFQGRVTITADESTSTAYMELSSLRSEDTAVYYCARWSDQSYHYYWHPYFDVWGQGTLVTVSS
VL: DIVLTQPPSVSGAPGQRVTISCSGSSSNIGSNYVSWYQQLPGTAPKLLIYDNNQRPSGVPDRFSGSKSGTSASLAITGLQSEDEADYYCQSWDLEPYVFGGGTKLTVL
notes: Variable regions of Fab MS-BW-14 cloned into human IgG1 vectors; also called IgG1 protein MS-BW-14; copies: 2 + 2

Tests used:
human TIMP-1 [1] = target: T1, human TIMP-1 (human, UniProt P01033 24-207); assay: cell-based or functional assay
human TIMP-1 [2] = target: T1, human TIMP-1; assay: SPR (BIAcore); against the parental Fab (MS-BW-44-6, 0.6 nM; implied)
Experimental: (§1) For affinity determination, monomeric fractions of affinity and SEC purified Fab fragments or purified IgG1 molecules were used. All experiments were conducted in HBS buffer at a flow rate of 20 μl/min at 25° C. on a BIAcore™ instrument. Antigens in 100 mM sodium acetate pH 5.0 were coupled to a CM 5 sensor chip using standard EDC-NHS coupling chemistry. […] All sensograms were fitted globally using BIA evaluation software. For monovalent Fab fragments a monovalent fit (Langmuir binding) and for IgGs a bivalent fit was applied.

human TIMP-1 [3] = target: T1, human TIMP-1; assay: SPR (BIAcore), monovalent Fab; against parental clone MS-BW-3 (best Fab and parent named in paragraph 170)
human TIMP-1 [4] = target: T1, human TIMP-1; assay: cell-based or functional assay; remark: listed apart in the source
human TIMP-1 [5] = target: T1, human TIMP-1; assay: SPR (BIAcore), TIMP-1 coupled to chip, monovalent Fab
Experimental: as §1

human TIMP-1 [6] = target: T1, human TIMP-1; assay: SPR (BIAcore), monovalent Fab
Experimental: as §1

rat TIMP-1 [7] = target: T2, rat TIMP-1 (rat, UniProt P30120 24-217); assay: cell-based or functional assay
rat TIMP-1 [8] = target: T2, rat TIMP-1; assay: SPR (BIAcore), rat TIMP-1 on chip (500 RU), IgG1, bivalent fit (avidity)
Experimental: as §1
Anti-rat TIMP-1 clone MS-BW-14 was chosen for the first in vivo study, and IgG₁ protein was produced by transient expression. Anti-human TIMP-1 clone MS-BW-3 was selected as a negative control IgG₁ and was also produced by transient expression. Purified IgG₁ proteins MS-BW-14 and MS-BW-3 were subjected to quality control in BIAcore™ and rat TIMP-1/rat MMP-13 assays. […] This increase in affinity for the IgG₁ is due to the avidity effects caused by binding of bivalent IgG₁ to immobilized rat TIMP-1 protein on the BIAcore™ chip.

T2 sequence (P30120 24-217 limits assumed): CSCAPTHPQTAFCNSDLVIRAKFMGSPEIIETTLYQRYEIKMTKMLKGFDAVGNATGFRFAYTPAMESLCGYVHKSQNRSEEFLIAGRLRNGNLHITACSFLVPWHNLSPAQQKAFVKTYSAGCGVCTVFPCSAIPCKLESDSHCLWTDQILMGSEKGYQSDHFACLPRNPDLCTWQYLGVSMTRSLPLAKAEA

Binder	IC50 in human protease assay (modified, decreased TIMP-1 and MMP-1) (human TIMP-1 [1]) [pM]	improvement factor (affinity) (human TIMP-1 [2]) [fold]	improvement factor of monovalent affinity (human TIMP-1 [3]) [fold]	improvement factor of activity in human TIMP-1/MMP-1 assay (against parental clone MS-BW-3) (human TIMP-1 [4]) [fold]	Kd (human TIMP-1 [5]) [pM]	Kd (human TIMP-1 [6]) [pM]	IC50 (50 % reversal of the inhibition of rat MMP-13 by rat TIMP-1, fluorogenic peptide substrate assay) (rat TIMP-1 [7]) [pM]	Kd (rat TIMP-1 [8]) [pM]
B1	200	4	87	55	200	150		
B2							~7000	200
